Results taken from patent US20140079638A1 (RAMOT AT TEL AVIV UNIVERSITY, published 2014).
No end group written: not given here.

B1: PGA-Paclitaxel-E-[c(RGDfk)2] conjugate (SEQ ID NO:18) having a 5.5 mol % PTX and 3.9 mol % E-[c(RGDfk)2] loading (peptide)
peptide: RGDFKERGDFK
modifications: not fully specified (residues 4, 5, 10, 11, bridges); also: two cyclic RGDfk rings joined through Glu spacer, paclitaxel ester-linked to PGA, 5.5 mol %
B2: PGA-Paclitaxel-E-[c(RGDfk)2] conjugate (SEQ ID NO:18) having a 2.6 mol % PTX and 5 mol % E-[c(RGDfk)2] loading (peptide)
peptide: RGDFKERGDFK
modifications: not fully specified (residues 4, 5, 10, 11, bridges); also: two cyclic RGDfk rings joined through Glu spacer, paclitaxel ester-linked to PGA, 2.6 mol %

Target: αvβ3 integrin receptor on human umbilical vein endothelial cells (HUVEC) (human, UniProt P06756 31-1048; P05106 27-788)
Sequence (P06756 31-1048, chain 1 of 2): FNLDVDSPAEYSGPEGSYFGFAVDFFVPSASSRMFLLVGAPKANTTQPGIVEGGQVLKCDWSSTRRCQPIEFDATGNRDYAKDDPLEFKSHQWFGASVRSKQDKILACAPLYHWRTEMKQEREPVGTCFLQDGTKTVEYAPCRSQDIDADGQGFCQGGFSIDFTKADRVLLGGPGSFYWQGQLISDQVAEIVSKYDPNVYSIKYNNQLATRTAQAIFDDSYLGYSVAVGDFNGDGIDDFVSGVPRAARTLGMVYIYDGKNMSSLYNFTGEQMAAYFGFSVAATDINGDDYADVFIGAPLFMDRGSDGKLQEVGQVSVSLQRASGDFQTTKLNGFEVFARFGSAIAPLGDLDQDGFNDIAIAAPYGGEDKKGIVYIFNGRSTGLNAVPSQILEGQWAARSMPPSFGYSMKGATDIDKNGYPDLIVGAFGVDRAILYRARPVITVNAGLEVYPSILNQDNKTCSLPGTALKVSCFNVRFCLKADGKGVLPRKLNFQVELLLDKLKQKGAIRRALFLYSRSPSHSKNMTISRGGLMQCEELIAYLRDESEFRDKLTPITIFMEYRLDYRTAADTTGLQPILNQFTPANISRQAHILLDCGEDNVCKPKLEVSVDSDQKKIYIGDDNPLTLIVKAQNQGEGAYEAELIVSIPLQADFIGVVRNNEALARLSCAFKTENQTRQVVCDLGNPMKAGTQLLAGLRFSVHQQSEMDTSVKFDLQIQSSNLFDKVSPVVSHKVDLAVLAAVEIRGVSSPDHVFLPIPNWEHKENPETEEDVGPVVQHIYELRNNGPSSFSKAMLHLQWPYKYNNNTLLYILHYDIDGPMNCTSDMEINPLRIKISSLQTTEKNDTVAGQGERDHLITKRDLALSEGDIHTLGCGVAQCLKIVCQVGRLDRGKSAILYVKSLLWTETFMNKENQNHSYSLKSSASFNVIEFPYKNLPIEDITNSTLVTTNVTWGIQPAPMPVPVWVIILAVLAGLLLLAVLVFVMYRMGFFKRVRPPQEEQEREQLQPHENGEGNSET
Sequence (P05106 27-788, chain 2 of 2): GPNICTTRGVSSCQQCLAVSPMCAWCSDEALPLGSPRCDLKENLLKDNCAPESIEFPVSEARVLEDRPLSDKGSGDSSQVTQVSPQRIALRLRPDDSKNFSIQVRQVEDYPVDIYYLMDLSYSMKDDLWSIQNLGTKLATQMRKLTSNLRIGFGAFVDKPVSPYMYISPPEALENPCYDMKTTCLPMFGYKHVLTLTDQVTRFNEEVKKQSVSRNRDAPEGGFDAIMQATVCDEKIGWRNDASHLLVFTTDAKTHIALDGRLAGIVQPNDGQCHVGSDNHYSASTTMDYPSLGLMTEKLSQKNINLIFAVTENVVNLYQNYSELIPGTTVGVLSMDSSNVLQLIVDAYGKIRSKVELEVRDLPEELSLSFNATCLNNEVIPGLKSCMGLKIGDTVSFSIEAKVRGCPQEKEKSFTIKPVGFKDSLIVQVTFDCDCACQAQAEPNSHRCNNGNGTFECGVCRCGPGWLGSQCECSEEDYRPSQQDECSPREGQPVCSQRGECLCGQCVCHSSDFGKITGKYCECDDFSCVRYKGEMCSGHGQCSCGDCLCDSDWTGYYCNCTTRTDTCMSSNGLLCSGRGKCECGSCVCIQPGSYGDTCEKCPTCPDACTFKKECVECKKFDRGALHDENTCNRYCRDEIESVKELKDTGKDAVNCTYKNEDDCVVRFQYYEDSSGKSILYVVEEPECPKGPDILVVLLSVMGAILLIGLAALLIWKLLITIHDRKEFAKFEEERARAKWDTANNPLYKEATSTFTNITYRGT
Assay: cell-based or functional assay

Binder | inhibition of HUVEC adhesion to fibrinogen [%]
B1 | ~60
B2 | ~60
